Reference: IntAct's records for PubMed 31515488

B1: Medium-chain acyl-CoA ligase ACSF2, mitochondrial (Homo sapiens), Q96CM8 (parent)
chain: MAVYVGMLRLGRLCAGSSGVLGARAALSRSWQEARLQGVRFLSSREVDRMVSTPIGGLSYVQGCTKKHLNSKTVGQCLETTAQRVPEREALVVLHEDVRLTFAQLKEEVDKAASGLLSIGLCKGDRLGMWGPNSYAWVLMQLATAQAGIILVSVNPAYQAMELEYVLKKVGCKALVFPKQFKTQQYYNVLKQICPEVENAQPGALKSQRLPDLTTVISVDAPLPGTLLLDEVVAAGSTRQHLDQLQYNQQFLSCHDPINIQFTSGTTGSPKGATLSHYNIVNNSNILGERLKLHEKTPEQLRMILPNPLYHCLGSVAGTMMCLMYGATLILASPIFNGKKALEAISRERGTFLYGTPTMFVDILNQPDFSSYDISTMCGGVIAGSPAPPELIRAIINKINMKDLVVAYGTTENSPVTFAHFPEDTVEQKAESVGRIMPHTEARIMNMEAGTLAKLNTPGELCIRGYCVMLGYWGEPQKTEEAVDQDKWYWTGDVATMNEQGFCKIVGRSKDMIIRGGENIYPAELEDFFHTHPKVQEVQVVGVKDDRMGEEICACIRLKDGEETTVEEIKAFCKGKISHFKIPKYIVFVTNYPLTISGKIQKFKLREQMERHLNL
B2: Ropporin-1A (Homo sapiens), Q9HAT0 (parent)
chain: MAQTDKPTCIPPELPKMLKEFAKAAIRVQPQDLIQWAADYFEALSRGETPPVRERSERVALCNRAELTPELLKILHSQVAGRLIIRAEELAQMWKVVNLPTDLFNSVMNVGRFTEEIEWLKFLALACSALGVTITKTLKIVCEVLSCDHNGGSPRIPFSTFQFLYTYIAKVDGEISASHVSRMLNYMEQEVIGPDGIITVNDFTQNPRVQLE
partner: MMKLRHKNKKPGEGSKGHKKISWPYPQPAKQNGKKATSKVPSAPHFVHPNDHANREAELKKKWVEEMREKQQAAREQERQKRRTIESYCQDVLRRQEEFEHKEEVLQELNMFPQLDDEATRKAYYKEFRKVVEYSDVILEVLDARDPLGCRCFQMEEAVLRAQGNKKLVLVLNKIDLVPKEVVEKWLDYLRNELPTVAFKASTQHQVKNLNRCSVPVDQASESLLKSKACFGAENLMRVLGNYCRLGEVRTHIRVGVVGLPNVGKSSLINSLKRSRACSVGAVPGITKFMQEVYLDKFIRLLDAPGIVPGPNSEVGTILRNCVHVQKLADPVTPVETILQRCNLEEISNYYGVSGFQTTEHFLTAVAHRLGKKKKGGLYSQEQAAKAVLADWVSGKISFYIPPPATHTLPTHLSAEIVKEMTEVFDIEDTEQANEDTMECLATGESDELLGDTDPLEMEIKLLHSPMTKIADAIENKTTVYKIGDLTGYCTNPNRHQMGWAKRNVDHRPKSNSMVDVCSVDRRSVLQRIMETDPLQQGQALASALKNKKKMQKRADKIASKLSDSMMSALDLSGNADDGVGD
B3: TBC1 domain family member 22B (Homo sapiens), Q9NU19 (parent)
chain: MAAENSKQFWKRSAKLPGSIQPVYGAQHPPLDPRLTKNFIKERSKVNTVPLKNKKASSFHEFARNTSDAWDIGDDEEEDFSSPSFQTLNSKVALATAAQVLENHSKLRVKPERSQSTTSDVPANYKVIKSSSDAQLSRNSSDTCLRNPLHKQQSLPLRPIIPLVARISDQNASGAPPMTVREKTRLEKFRQLLSSQNTDLDELRKCSWPGVPREVRPITWRLLSGYLPANTERRKLTLQRKREEYFGFIEQYYDSRNEEHHQDTYRQIHIDIPRTNPLIPLFQQPLVQEIFERILFIWAIRHPASGYVQGINDLVTPFFVVFLSEYVEEDVENFDVTNLSQDMLRSIEADSFWCMSKLLDGIQDNYTFAQPGIQKKVKALEELVSRIDEQVHNHFRRYEVEYLQFAFRWMNNLLMRELPLRCTIRLWDTYQSEPEGFSHFHLYVCAAFLIKWRKEILDEEDFQGLLMLLQNLPTIHWGNEEIGLLLAEAYRLKYMFADAPNHYRR
partner: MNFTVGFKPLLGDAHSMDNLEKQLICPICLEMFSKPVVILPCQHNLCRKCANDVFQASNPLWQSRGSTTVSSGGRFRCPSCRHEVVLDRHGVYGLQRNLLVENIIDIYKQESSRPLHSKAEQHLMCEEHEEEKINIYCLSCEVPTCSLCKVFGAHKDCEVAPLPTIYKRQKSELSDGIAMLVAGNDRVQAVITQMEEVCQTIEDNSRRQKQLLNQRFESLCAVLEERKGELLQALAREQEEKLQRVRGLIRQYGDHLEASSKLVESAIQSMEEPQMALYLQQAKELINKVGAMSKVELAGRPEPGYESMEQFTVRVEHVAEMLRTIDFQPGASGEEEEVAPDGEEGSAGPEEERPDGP
B4: Melanoma-associated antigen 8 (Homo sapiens), P43361 (parent)
chain: MLLGQKSQRYKAEEGLQAQGEAPGLMDVQIPTAEEQKAASSSSTLIMGTLEEVTDSGSPSPPQSPEGASSSLTVTDSTLWSQSDEGSSSNEEEGPSTSPDPAHLESLFREALDEKVAELVRFLLRKYQIKEPVTKAEMLESVIKNYKNHFPDIFSKASECMQVIFGIDVKEVDPAGHSYILVTCLGLSYDGLLGDDQSTPKTGLLIIVLGMILMEGSRAPEEAIWEALSVMGLYDGREHSVYWKLRKLLTQEWVQENYLEYRQAPGSDPVRYEFLWGPRALAETSYVKVLEHVVRVNARVRISYPSLHEEALGEEKGV

Variants of: B1
Conditions: with atrap_human AGTRAP

Variant | effect of a mutation on the interaction
G19W | disrupting interaction strength

Variants of: B1
Conditions: with ar6p1_human ARL6IP1, Q15041
Chain of ar6p1_human ARL6IP1, Q15041 (Q15041 whole entry): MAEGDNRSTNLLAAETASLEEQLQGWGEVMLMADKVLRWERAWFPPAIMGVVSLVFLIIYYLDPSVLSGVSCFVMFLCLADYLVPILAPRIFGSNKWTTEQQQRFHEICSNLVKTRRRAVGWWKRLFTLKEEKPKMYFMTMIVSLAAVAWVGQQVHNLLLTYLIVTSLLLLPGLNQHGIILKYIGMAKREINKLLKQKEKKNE

Variant | effect of a mutation on the interaction
G19W | disrupting interaction strength

Variants of: B2
Conditions: with gnl3l_human GNL3L

Variant | effect of a mutation on the interaction
C62W | with no effect

Variants of: B3
Conditions: with tri54_human TRIM54, Q9BYV2

Variant | effect of a mutation on the interaction
MAAENSKQFWKRSAKLPGSIQPVYGAQHPPLDPRLTKNFIKERSKVNTVPLKNKKASSFHEFARNTSDAWDIGDDEEEDFSSPSFQTLNSKVALATAAQVLENHSKLRVKPERSQSTTSDVPANYKVIKSSSDAQLSRNSSDTCLRNPLHKQQSLPLRPIIPLVARISDQNASGAPAMTVREKTRLEKFRQLLSSQNTDLDELRKCSWPGVPREVRPITWRLLSGYLPANTERRKLTLQRKREEYFGFIEQYYDSRNEEHHQDTYRQIHIDIPRTNPLIPLFQQPLVQEIFERILFIWAIRHPASGYVQGINDLVTPFFVVFLSEYVEEDVENFDVTNLSQDMLRSIEADSFWCMSKLLDGIQDNYTFAQPGIQKKVKALEELVSRIDEQVHNHFRRYEVEYLQFAFRWMNNLLMRELPLRCTIRLWDTYQSEPEGFSHFHLYVCAAFLIKWRKEILDEEDFQGLLMLLQNLPTIHWGNEEIGLLLAEAYRLKYMFADAPNHYRR [P177A] | with no effect

Variants of: B4
Conditions: with bex5_human BEX5, Q5H9J7
Chain of bex5_human BEX5, Q5H9J7 (Q5H9J7 whole entry): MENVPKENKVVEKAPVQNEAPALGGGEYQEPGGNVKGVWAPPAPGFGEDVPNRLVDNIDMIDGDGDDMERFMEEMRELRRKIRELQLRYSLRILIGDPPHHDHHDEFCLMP

Variant | effect of a mutation on the interaction
MLLGQKSQCYKAEEGLQAQGEAPGLMDVQIPTAEEQKAASSSSTLIMGTLEEVTDSGSPSPPQSPEGASSSLTVTDSTLWSQSDEGSSSNEEEGPSTSPDPAHLESLFREALDEKVAELVRFLLRKYQIKEPVTKAEMLESVIKNYKNHFPDIFSKASECMQVIFGIDVKEVDPAGHSYILVTCLGLSYDGLLGDDQSTPKTGLLIIVLGMILMEGSRAPEEAIWEALSVMGLYDGREHSVYWKLRKLLTQEWVQENYLEYRQAPGSDPVRYEFLWGPRALAETSYVKVLEHVVRVNARVRISYPSLHEEALGEEKGV [R9C] | with no effect
MLLGQKSQRYKAEEGLQAQGEAPGLMDVQIPTAEEQKAASSSSTLIMGTLEEVTDSGSPSPPQSPEGASSSLTVTDSTLWSQSDEGSSSNEEEGPSTSPDPAHLESLFREALDEKVAELVHFLLRKYQIKEPVTKAEMLESVIKNYKNHFPDIFSKASECMQVIFGIDVKEVDPAGHSYILVTCLGLSYDGLLGDDQSTPKTGLLIIVLGMILMEGSRAPEEAIWEALSVMGLYDGREHSVYWKLRKLLTQEWVQENYLEYRQAPGSDPVRYEFLWGPRALAETSYVKVLEHVVRVNARVRISYPSLHEEALGEEKGV [R121H] | with no effect
